Test results from publication PMC5877544, “D181A Site-Mutagenesis Enhances Both the Hydrolyzing and Transfructosylating Activities of BmSUC1, a Novel β-Fructofuranosidase in the Silkworm Bombyx mori” (International Journal of Molecular Sciences, 2018).

Key:
[1] = substrate: OC[C@H]1O[C@@](CO)(O[C@H]2O[C@H](CO)[C@@H](O)[C@H](O)[C@H]2O)[C@@H](O)[C@@H]1O; experiment: purified protein; assay type: biochemical, Bombyx mori; details: 10 mM Britton-Robinson buffer pH 7.0, 30 °C (standard assay), 2 μg protein, sucrose 40-280 mM
[2] = substrate: OC[C@H]1O[C@H](OC[C@H]2O[C@H](O[C@]3(CO)O[C@H](CO)[C@@H](O)[C@@H]3O)[C@H](O)[C@@H](O)[C@@H]2O)[C@H](O)[C@@H](O)[C@H]1O; experiment: purified protein; assay type: biochemical, Bombyx mori; details: 10 mM Britton-Robinson buffer pH 7.0, 30 °C (standard assay), 2 μg protein, raffinose 10-70 mM

Protein | Km [1] [mM] | kcat [1] [s⁻¹] | kcat/Km [1] [M⁻¹ s⁻¹] | Km [2] [mM] | kcat [2] [s⁻¹] | kcat/Km [2] [M⁻¹ s⁻¹]
BmSUC1 (wtBmSUC1) (Bombyx mori) (protein, full coding region (488 aa, about 56 kDa), C-terminal 6xHis tag kept; expressed in BmN cells by Bac-to-Bac/BmNPV, secreted (N-terminal signal peptide), Ni-NTA purified from culture medium) LRQQNETTKRELEEYIADKKAEINPRYRPHYHISPPVGWMNDPNGFSYYKEKFHLFYQFYPYDSVWGPMHWGHVSSSNLIDWEHLPTALIPETEMCFSGGAVVHGDDLVLLYTGRVTTDTDPFYNETQYLAFSNDGVNFRKYEGNPVLSYVPDNSADFRDPKIWKFKDHWYVVIGSSSNKRGRVLLYRSGDLFNWEFLSVLGESDGDMGYMWECPDLFELGGKTIFLWSPQGLEPKGDRYKNTYQTGYYIGELDYETFEFKTDKYFQELDYGHDFYATQTIQGDGKTYLIGWFNMWEVPHLEKEDGWAGTTTLVRELQLIGTRITMNPLEGIQDLRTDSVHNGDLEPQQAIEFGPTAEIILQGCLDQKIELLIQGKEGGLVTTVTWDPEVGKVIVNRSGEVRQVEWVPIGKTSWRLFLDASSLELFCGEGEVVFSSRIFSDGDWVVKNSSPQTLSVEAYRLRRSVPA | 88.32 ± 11.75 | 0.022 ± 0.0009 | 0.249 | 52.32 ± 17.22 | 0.025 ± 0.0028 | 0.291
BmSUC1 (wtBmSUC1) (Bombyx mori; D181A) (protein, full coding region (488 aa, about 56 kDa), C-terminal 6xHis tag kept; expressed in BmN cells by Bac-to-Bac/BmNPV, secreted (N-terminal signal peptide), Ni-NTA purified from culture medium) LRQQNETTKRELEEYIADKKAEINPRYRPHYHISPPVGWMNDPNGFSYYKEKFHLFYQFYPYDSVWGPMHWGHVSSSNLIDWEHLPTALIPETEMCFSGGAVVHGDDLVLLYTGRVTTDTDPFYNETQYLAFSNDGVNFRKYEGNPVLSYVPDNSADFRAPKIWKFKDHWYVVIGSSSNKRGRVLLYRSGDLFNWEFLSVLGESDGDMGYMWECPDLFELGGKTIFLWSPQGLEPKGDRYKNTYQTGYYIGELDYETFEFKTDKYFQELDYGHDFYATQTIQGDGKTYLIGWFNMWEVPHLEKEDGWAGTTTLVRELQLIGTRITMNPLEGIQDLRTDSVHNGDLEPQQAIEFGPTAEIILQGCLDQKIELLIQGKEGGLVTTVTWDPEVGKVIVNRSGEVRQVEWVPIGKTSWRLFLDASSLELFCGEGEVVFSSRIFSDGDWVVKNSSPQTLSVEAYRLRRSVPA | 52.87 ± 6.85 | 0.025 ± 0.0004 | 0.473 | 32.03 ± 4.43 | 0.021 ± 0.0014 | 0.656
